Measurements as given in patent US8114638B2, “Arabinitol dehydrogenase from Neurospora crassa” (The Board of Trustees of the University of Illinois, priority 2007, dated 2012).

System: OC[C@H](O)C(O)[C@@H](O)CO
Test: purified protein, by the assay type
Conditions: other: with indicated substrate, 25° C., 50 mM Tris pH 8.0, saturated NAD+ (2 mM)
Method: Initial rates were determined using a Varian Cary 100 Bio UV-visible spectrophotometer (Varian) at 25° C. in 50 mM Tris (pH 8.0). […] The kinetic data were analyzed with a modified version of Cleland's program (Cleland, W. W. (1979) Statistical analysis of enzyme kinetic data, Methods Enzymol 63, 103-138.).
Kinetics. The data were used to calculate the kinetic constants for various substrates by fitting the Michaelis-Menten equation using Origin 5.0. […] The data represent averages of assays performed in duplicate or triplicate on two separate occasions.

Substance: N. crassa LAD (Neurospora crassa OR74A)
- Km: 18 ± 2 mM
- kcat: 20.2 ± 0.5 s⁻¹
- kcat/Km: 1120 M⁻¹ s⁻¹
